Values quoted from earlier work as cited in PMC3377446.

Target: PDL1 (Homo sapiens) (UniProt Q9NZQ7)
Sequence of UniProt Q9NZQ7 (Q9NZQ7 19-238): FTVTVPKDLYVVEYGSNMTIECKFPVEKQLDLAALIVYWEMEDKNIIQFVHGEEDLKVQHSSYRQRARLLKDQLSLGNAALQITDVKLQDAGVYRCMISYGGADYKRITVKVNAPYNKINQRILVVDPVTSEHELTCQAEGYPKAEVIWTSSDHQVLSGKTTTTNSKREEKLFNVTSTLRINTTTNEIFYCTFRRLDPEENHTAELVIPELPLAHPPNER

Kd: 1400 nM
Substance: CD80 (from UniProt P33681)
